From the supplement of paper PMC9170038

Tested on: MS2 coat protein
Experiment: apparent KD of MS2 coat protein; designed switch direction (-1 OFF switch, 1 ON switch): -1; higher = weaker reporter binding
In short: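 Normalised cluster fluorescence was curve-fitted, and each design's median over clusters is its apparent KD. Before this, SNAP-549-labelled MS2 coat protein was titrated from 0.7 or 1.5 nM, doubling to 3 µM, over RNA switches transcribed on Illumina chips by stalled E. coli RNA polymerase. Titrations had no input, 200 uM small-molecule ligand, or an oligonucleotide input, and steps lasted 0.8–1.5 h (lowest) to 10–20 min (highest).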

[1] = input ligand: microRNA oligo, concentration not stated
[2] = Eterna round: R95, input ligand: FMN 200 uM
[3] = Eterna round: R95, input ligand: microRNA oligo, concentration not stated
[4] = Eterna round: R95, input ligand: none

Sequence | apparent KD of MS2 coat protein (input ligand: FMN 200 uM) [nM] | apparent KD of MS2 coat protein [1] [nM] | apparent KD of MS2 coat protein (input ligand: none) [nM] | apparent KD of MS2 coat protein [2] [nM] | apparent KD of MS2 coat protein [3] [nM] | apparent KD of MS2 coat protein [4] [nM]
UUAUUGUGAGGAUAUCAGGUGUGCUAGCGUACUGGUACAUCUGAGAAGGCACAUGAGGAUCACCCAUGUUUCUU [JL-ex4-3.22 Brourd mod] (Eterna round: R96, puzzle: Exclusion 4) | 69.6 | 18.9 | 25 |  |  | 
UUUUUCUCAGGAUAUACAUGAGGAUCACCCAUGUAUAUUAAUGGUAAUACAUGGGAAUGUAGAAGGGAGCUCAU [Omei Ex3 Pseudoloop 15] (Eterna round: R97, puzzle: Exclusion 3) | 112 |  | 122 |  |  | 
GGAAAACAUGAGGAUCACCCAUGUAAGGAUAUGCAAAAGGAUAUAGAAGGAAAAAAAAGCAGAAGGUACAAAGG [salish99-ex1_r3_094] (puzzle: Exclusion 1) |  |  |  | 132 | 36.3 | 32.8
CUGAGUUGAGGAUAUACAUGAGGAUCACCCAUGUAAAGUAGCUUGCGUACAGGCAGAUGUAGAAGGCAAUUCGG [Mod of JL 3 - Jieux - Exclusion 3] (Eterna round: R97, puzzle: Exclusion 3) | 37.6 |  | 24.5 |  |  | 
UUUAAUUUUUUUUUUUUACAAGCUUUUUGCUCGUCUUAUACAUGAGGAUCACCCAUGUGGAUGGGAGAUAAAUUAUC [JMF 19] (puzzle: Sensor v3, turn-off variant 2) |  |  |  | 30.9 | 164 | 36.4
UGUAACCGAGGAUAUACAUGAGGAUCACCCAUGUAAUGUAGUAUAGUGUAUGUAAGAUGUAGAAGGUGGGAUGU (Eterna round: R97, puzzle: Exclusion 3) | 40.2 |  | 45.7 |  |  | 
GACCGGACGUGGUCUGGUAACAUGAGGAUCACCCAUGUAGGUCUAAGAACAUGCCUUUUGCACGCUCGUCUUAUAUA [JR_SV3TOV1_Sub063] (puzzle: Sensor v3, turn-off variant 1) |  |  |  | 54.7 | 38.2 | 63.8
CCUAUGUGAGGAUAUCACUGGUCUUUUCAUUAGAUGAUCAGUGAGAAGGCACAUGAGGAUCACCCAUGUCAGUG [Ex4 - 3 - 53] (puzzle: Exclusion 4) |  |  |  |  | 71.8 | 
UCGAGUGCUGAGGAUAUCUGCGAGUAAAGCUCAAGAGAAGGCAGUACAUGAGGAUCACCCAUGUGGAGCCUGUG [EX6 B.27] (Eterna round: R97, puzzle: Exclusion 6) | 86.7 |  | 21.6 |  |  | 
CAGUACUGAGGAUAUACAUGAGGAUCACCCAUGUGAGUGAUACUAGUGAGGUCGAUUAGUAGAAGGCAGUACUG [Mat X3R4 m27] (Eterna round: R97, puzzle: Exclusion 3) | 1110 |  | 123 |  |  | 
AAUACAAGCAAGAUCCUAAACAUGAGGAUCACCCAUGUGCUCGUCUUAUAAAGUACUAUCACGAAAGUGAUAGUACA [Sensor 3, v1 - 63] (puzzle: Sensor v3, turn-off variant 1) |  |  |  | 213 | 438 | 234
UUAUACGCUGAGGAUAUCUUCACUAAAGUGUGAAGAGAAGGCGGUACAUGAGGAUCACCCAUGUCUAUGGGCAG [Ex-6 Malc#18] (puzzle: Exclusion 6) |  |  |  | 596 | 568 | 282
AAACAAGCGUGAGGCUCGUCUUAAAAAGCCUCAUGAAAAACAUGAGGAUCACCCAUGUAAAAUGAUCGAAAGAUCAA [JL turnoff v2 29] (Eterna round: R96, puzzle: Sensor v2, turn-off variant 2) | 15.5 | 43.4 | 17.6 |  |  | 
ACAUGUCAUCGAGGAUAUUGUACACAUGAGGAUCACCCAUGUAUUCGGUUGCUCUCGCGUGAGUUCGAGAAGGCGAUGUACAUU [Ex NG2 #82] (Eterna round: R96, puzzle: Exclusion NG 2) | 105 | 24.2 | 29.3 |  |  | 
UCAACGCAAGGAUAUACUUGCGGUGAUGUUCGAAUUCUUCUACUUGAGGAUCACCCAAGUAGAAGGUGCGGUGA [jl-ex2.4.64 ViennaUCT mod] (Eterna round: R97, puzzle: Exclusion 2) | 14 |  | 13.1 |  |  | 
UAACAAGCUUAAAGAUCCUACAUGAGGAUCACCCAUGUGCUCGUCUUGUAACGUACUGUGACGAAAGUCACGGUACG [JL TOV1 3.15] (Eterna round: R97, puzzle: Sensor, turn-off variant 1) | 521 |  | 314 |  |  | 
AUAAUAUAUGUAGGAUAUCUGCACGAUUAGUGCAGAGAAGGACAUGAGGAUCACCCAUGUAAUUAAGAUCAAUUAUUAAAUUAU [ENG1/4-B1] (Eterna round: R96, puzzle: Exclusion NG 1) | 84.3 | 24.6 | 35.4 |  |  | 
UUUUUAUUUGAAGGAUAUACUUAACAUGAGGAUCACCCAUGUGGUGUUGUGAGUGAGUGAGUUUAGUAGAAGGUCAAUUCUUUU [JMF's solution 85] (Eterna round: R96, puzzle: Exclusion NG 2) |  | 391 |  |  |  | 
UCAUACGUUGAGGAUAUGUCAGUUAGAAUAUUUACAGAAGGCGAUACAUGAGGAUCACCCAUGUUUAUGGGCAU [Ex-6 Malc#5] (puzzle: Exclusion 6) |  |  |  |  | 173 | 
CUGCCAACGAAGCUUGUCGACAUGAGGAUCACCCAUGUUUCGCAAAGUGUUACAAAAAAAUAUCUGUAUGAAAAUGU [JR_Sensorv2_yov_Sub1319] (Eterna round: R96, puzzle: Sensor v2, turn-off variant) | 11.8 | 10.2 | 15.9 |  |  | 
CCGCAGUGAGGAUAUUGUCAUAGACGGUGUGAAUCACGGGACAAGAAGGUACAUGAGGAUCACCCAUGUGGGUG [Eternabot (L1) Solution 1] (Eterna round: R97, puzzle: Exclusion 4) | 54.3 |  | 1560 |  |  | 
AGCUGUGGCCGAGGAUAUCUAAUAAUCUCAACCGAAAUAUAAUCGGACAUGAGGAUCACCCAUGUAGAGAAGGCGGUCUCAGCA [Eli eng2 - 067] (Eterna round: R96, puzzle: Exclusion NG 2) |  | 27.2 |  |  |  | 
CAGUACUGAGGAUAUACAUGAGGAUCACCCAUGUGUCUUCUAUUAGGAAACUAGUUAUGUAGAAGGCAGUACUG [Omei Ex3 Mod of Eli 4.27 v8] (Eterna round: R97, puzzle: Exclusion 3) | 221 |  | 16.9 |  |  | 
GAAAACGUAGGAUAUUAAUACUUAUACAUGAGGAUCACCCAUGUUUGGUGGGUUUAAGAAUGAGAAGGGCGAUGAA [EX5 #8] (Eterna round: R97, puzzle: Exclusion 5) | 446 |  | 717 |  |  | 
GAUUAGUGAGGAUAUGGUAAAGAUAAGAUGAUGAAAGAACUCCAGAAGGCACAUGAGGAUCACCCAUGUAGUAU [Mat - Exclusion 4 - Mod of JL - D22] (puzzle: Exclusion 4) |  |  |  |  | 21.6 | 
GACUUCUCUGAGGAUAUUGCAUCAUACGAUAAAUAAGAAGGCAGAACAUGAGGAUCACCCAUGUGGGUUUUAAG [Bingo-Bango-33] (Eterna round: R97, puzzle: Exclusion 6) | 137 |  | 104 |  |  | 
